Data: the DeepSol protein solubility set

Experiment: soluble on expression in E. coli; label from the status in PepcDB or PDB records
In the case of “MDFPPTKLDYHVDMFNLQSHSRFLSLFKAQDGRIALILESTVFHPQGGGQPSDTGLIVFSGSDLKFSVQDVLHYGVFEGSNPESGIDSEKGKEVYLTVDESRRKLNSRQAVEDCSHCYAWHGWNKISDVWLHSAGHLLDMCMQKVGLGHLEPGKGYHFPDGPFVEYKGSVPQEEFQVKQKELEAEANELISKGGKVYAAILPYEEASVLCGGSLPDYISKGSTPRIIKLGDSPGCPCGGTHVSNLSDIISMKITQMRTKKGMTKVFYTIAS”, the “soluble on expression in E. coli” value is reported as “soluble”. For “MGCSGGDATACANLAQMYENKKNADSNDKENALQLYAVACQGGDMLACNNLGWMFANGSGVPKDYYKAISYYKFSCENGNDMGCYNLGLMSNVNNIYGIDKAQLSQVDLNYLACNAGDMMGCANLGWIYANGDLGAPLNNHYAAKYFQMACDGGILGSCNNLGVLYQKGLGVPQDDQRALDLFSYACDNGFESSCRNYGNFKEHLLRVNPNYGRLFMPYNSYDIPLEHHHHHH”, the “soluble on expression in E. coli” value was “not soluble”. For “MSLEFIPRSEQRPIVDTSSTTLDLIYFDLVTLASNEQDIRRLPAHESLYVVLSGQVDIEVDGIMFEAVGRRADIWGGDADSVYAPVGANVRISARGAAAEVAIAGGLCDTRYAAFRITPDEVDAVNVGSSDTHSQRRIVHLLGQRQNGRCGNLLVSELYAGEGCWSGYPPHKHDTEDGDVETRHEELYHYRFQPETGFGSQITYDEDGPVKILMTRNGDTVLVDRGYHPTVTSPGHQGYIFTILVGKHRRGLIQRFDPAHQHLTKTIPGEGHHHHHH”, the “soluble on expression in E. coli” value was “soluble”. With “MTQTYNADAIEVLTGLEPVRRRPGMYTDTTRPNHLGQEVIDNSVDEALAGHAKRVDVILHADQSLEVIDDGRGMPVDIHPEEGVPAVELILCISVVNALSKRVEVNVRRDGQVYNIAFENGEKVQDLQVVGTCGKRNTGTSVHFWPDETFFDSPRFSVSRLTHVLKAKAVLCPGVEITFKDEINNTEQRWCYQD” the “soluble on expression in E. coli” value was “soluble”. In the case of “LKFGTSWKEAYGTGWLIDWKDVKQDNKFTAYLATNLHVADSLRNKDDYKPYNKDGNQKEFLPGDITTEFSLGKYIDA”, the “soluble on expression in E. coli” value is reported as “not soluble”. For “MAHHHHHHMKGNKGANIAYPDKYHKVTEFFDREYGDLETCTKLNDCQKLLFYALRQQVEHGPCTSGAPFIWQVRERAKHDAWKQLGAMTKFEAMVHFVTHLEECIGGNVDWGEKLRDLNGMRDQQRVGVENGTGESNANEQTERGVSEAHWDADVQAHLQPSAENIEYLAREVMRLRGELQQVRPNRVVPTPIVVPPRKPIDYVSTKNIVPPARTLATVATRTALLNAQTTNNLVERQPQGWGEWFGL”, the “soluble on expression in E. coli” value was “not soluble”. For “MRCMSDDHTHVQEFFEARAADWDSRFPDDGPAHAAAVAELGLREGDRVLDAGCGTGRALPSLRAAVGSSGVVVGVDLTPAMLAAAARAGRGRDGHLLLADVTRLPLGTESLDAVFAAGLIAHLPEPAENLRELARVVRAGGTLALFHPIGRAALAARQGRQITPDDLRAEANLGPLLAGSGWRMTSYVDEDARFLALAVRVKLEHHHHHH”, the “soluble on expression in E. coli” value was “not soluble”. With “MGSDKIHHHHHHMPTINSIQTTVNGVVKIVKPFNNDIAGEQFDPHVLQTLTAFKQPAILENDLAALRSGSLTPAIADPVGDAVTVQSRNITALNRTVSVEWLTPQNVINHTVLVYFHGGAFYGGVPGNNTVLLKLVAAKSHCEILNVDYSLAPEAPAPAGILDGLAIFQYLEQRDAETMITVAGDSAGANVIMAATNLNQQLGSNRINQQLLLYPVTAPNADHAGPLWDLAAFPIIDSQRAILTNYHDLFRQLDSIMTDYYVPENFDSHSPLISPLHQENFTMTPPTTIMVGEFDPFRPQAWAYAQRLAAADTATTFIQYQGLNHAFAPLVDQYWQSQDVAQVMAAALI” the “soluble on expression in E. coli” value was “not soluble”. With “NILKALLPTSTAGSLPKPAWLAEPETLWSPWKLQGEELTEGKHDALRLSLQDQQQAGIDIVSDGEQTRQHFVTTFIEHLNGVDFEKRKTVKIRDRYDASVPTVVGPVSRQKSVFVEDAKFLRQQTKQPIKWALPGPMTMIDTLYDDHYKSREKLAWEFAKILNQEAKELEAAGVDIIQFDEPAFNVFFDEVNDWGIACLERAIEGLNCETAVHICYGYGIKANTDWKKTLGSEWRQYEEAFPKLQKSNIDIISLECHNSHVPMELLELIRGKKVMVGAIDVASNTIETPEEVANTLRKALKFVDADKLYPCTNCGMAPLSHQVARGKLNALSAGAEIVRRELST” the “soluble on expression in E. coli” value was “not soluble”.
